# Data reported in patent US20200347144A1 (SHANGHAI HYAMAB BIOTECH, published 2020).
# Substitutions are numbered along the chain they refer to.
# B1: 258F5A8 (antibody, V domains shown)
# VH: QVQLVESGGGVVQPGRSLRLSCAASGFTFSSYGMHWVRQAPGKGLEWVAVIWYDGSNKYYADSVKGRFNISRDNSKNTLYLQMNSLRAEDTAVYYCARGPYLYSSGWYDYYYYGMDVWGQGTTVTVSS
# VL: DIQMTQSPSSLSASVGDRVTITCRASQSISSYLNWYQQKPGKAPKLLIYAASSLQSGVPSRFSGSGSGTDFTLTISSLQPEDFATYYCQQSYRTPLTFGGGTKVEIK
# B2: 259G10E11 (antibody, V domains shown)
# VH: B1 VH with N69T
# VL: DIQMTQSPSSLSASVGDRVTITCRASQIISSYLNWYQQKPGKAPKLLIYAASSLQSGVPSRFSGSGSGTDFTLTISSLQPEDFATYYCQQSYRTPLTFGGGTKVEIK
# B3: 11H10C9 (antibody, V domains shown)
# VH: QVQLVESGGGVVQPGRSLRLSCAASGFTFSSYAMHWVRQAPGKGLEWVAIIWYDGSNQYYADSVKGRFTISRDNSMNTLYLQMNSLRAEDTAVYYCARVEQWLVSYFDFWGQGTLVTVSS
# VL: EIVMTQSPATLSVSPGERATLSCRASQSVSSNLAWYQQKPGQVPRLLIYGASTRATGIPARFSGSGSGTEFTLTISSLQSEDFAVYYCQQYNNWPTFGGGTKVEIK
# B4: 119B6G5 (antibody, V domains shown)
# VH: EVQLLESGGGLVQPGGSLRLSCAASGFTFSNYAMSWVRQGPGKGLEWVSTIIGSGDSTYYTDSVKGRFTISRDNSKNTLFLQMNSLRAEDTAVYYCARDKSGWYYFDYWGQGTLVTVSS
# VL: DIQMTQSPSTLSASVGDRVTITCRASQSISNWLAWYQQKPGKAPKLLIYKASSLESGVPSRFSGSGSGTEFTLTISSLQPDDFATYYCQQYNDYFPITFGQGTRLEIK
# B5: 172E3E3 (antibody, V domains shown)
# VH: QVQLQESGPGLVKPSGTLSLTCAVSGGSISSSNWWSWVRQPPGKGLEWIGEIYHSGSTNYNPSLKSRVTISVDKSKNQLSLNLSSVTAADTAVYYCARQGGVAGTLYWYFDLWGRGTLVTVSS
# VL: DIVMTQSPLSLPVTPGEPASISCRSSQGLLHSNGYNYLDWYLQKPGQSPQLLIYLGSNRASGVPDRFIGSGSGTDFTLKIRRVEAEDVGVYYCMQVLQTPWTFGQGTKVEIK
# B6: 263A11E3 (antibody, V domains shown)
# VH: QVQLQESGPGLVKPSETLSLTCAVSGYSISSGYYWGWIRQPPGKGLEWIGSIYHSGSTSYNPSLRSRVTISVDTSKNQFSLKLSSVTAADTAVYYCARDAGGFDYWGQGTLVTVSS
# VL: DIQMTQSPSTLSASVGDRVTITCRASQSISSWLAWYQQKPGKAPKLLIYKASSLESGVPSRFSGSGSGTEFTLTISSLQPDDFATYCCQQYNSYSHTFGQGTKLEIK
# B7: 182A5B3 (antibody, V domains shown)
# VH: QVQLVQSGAEVKKPGASVKVSCKASGYTFTSYDINWVRQATGQGLEWMGWMNPNSGNTGYVQKFQGRVTMTRNTSISTAYMELSSLRSEDTAVYYCARETGPFDYWGQGTLVTVSS
# VL: not shown
# Molecular target: T1, human 4-1BB, full length, on transfected cells (human, UniProt Q07011 24-255)
# T1 construct: whole, on cells; also called CHOK1-h4-1BB
# Assay: FACS, CHOK1-h4-1BB cells; Ab 2 ug/ml
# Source text: (§1) The pIRES plasmid carrying the full-length gene of monkey-derived […] (the preparation method is the same as the preparation method of the pCpC vector carrying the human-derived IgG Fc fragment (hFc) in “Preparation of immunogen A” of the step (1) in Example 1, in which the database accession number of the amino acid sequence of the extracellular region of monkey 4-1BB protein (Phe19-Thr239) is G7PSE7) was transfected into CHOK1 cell line to obtain CHOK1 stable transfected cell line containing monkey 4-1BB (herein referred to as CHOK1-c4-1BB stable cell line). The CHOK1-h4-1BB stable cell line and the CHOK1-c4-1BB stable cell line were expanded and cultivated to 90% confluence in T-75 cell culture flasks. The medium was exhausted, and washed twice with HBSS buffer (Hanks Balanced Salt Solution, purchased from Invitrogen), and then the cells were treated and collected with enzyme-free cell dissociation solution (Versene solution, purchased from Life Technology). The cells were washed twice with HBSS buffer, and after cell counting, the cells were diluted with HBSS buffer to 2×10⁶ cells per ml, and 1% goat serum blocking solution was added, the percentage being the mass percentage. It was incubated on ice for 30 minutes, and then washed twice with HBSS buffer by centrifugation. The collected cells were suspended in FACS buffer (HBSS containing 1% BSA, the percentage was the mass percentage) to 2×10⁶ cells/mL, and 100 μl per well was added to a 96-well FACS reaction plate. The purified 4-1BB antibody test sample obtained in Example 2 was added, 100 microliters per well and incubated on ice for 2 hours. […] It was washed three times with FACS buffer by centrifugation, and 100 μl of fixative [4% (v/v) paraformaldehyde] per well was added to suspend cells, and washed twice with FACS buffer after 10 minutes by centrifugation. The cells were suspended with 100 microliters of FACS buffer, and the results were detected and analyzed with FACS (FACS Calibur, purchased from BD).
# T1 sequence (Q07011 24-255): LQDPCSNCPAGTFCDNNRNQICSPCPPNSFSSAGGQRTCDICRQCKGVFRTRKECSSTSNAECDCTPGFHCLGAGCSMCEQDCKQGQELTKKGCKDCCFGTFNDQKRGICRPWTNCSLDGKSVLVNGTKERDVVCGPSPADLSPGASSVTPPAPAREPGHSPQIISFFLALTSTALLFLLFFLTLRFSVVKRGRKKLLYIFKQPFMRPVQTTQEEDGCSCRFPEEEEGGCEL
row,average fluorescence intensity [MFI],Binder
1,766,B1
2,803,B2
3,520,B3
4,1080,B4
5,486,B5
6,1690,B6
7,760,B7

# Molecular target: T1, human 4-1BB, full length, on …
# Assay: FACS, CHOK1-h4-1BB cells; Ab 10 ug/ml
# Source text: as §1
row,average fluorescence intensity [MFI],Binder
1,835,B1
2,827,B2
3,498,B3
4,1080,B4
5,489,B5
6,1780,B6
7,769,B7

# Molecular target: T1, human 4-1BB, full length, on …
# Assay: FACS, CHOK1-h4-1BB cells; Ab 0.4 ug/ml
# Source text: as §1
row,average fluorescence intensity [MFI],Binder
1,591,B1
2,625,B2
3,431,B3
4,636,B4
5,413,B5
6,1120,B6
7,530,B7

# Molecular target: T2, monkey 4-1BB on CHOK1 cells (monkey)
# T2 construct: whole, on cells; also called CHOK1-c4-1BB
# Assay: FACS, CHOK1-c4-1BB cells; Ab 0.4 ug/ml
# Source text: as §1
row,average fluorescence intensity [MFI],Binder
1,71.4,B1
2,64.3,B2
3,298,B3
4,944,B4
5,159,B5
6,56.5,B6
7,373,B7

# Molecular target: T2, monkey 4-1BB on CHOK1 cells
# Assay: FACS, CHOK1-c4-1BB cells; Ab 0.016 ug/ml
# Source text: as §1
row,average fluorescence intensity [MFI],Binder
1,9.9,B1
2,9.3,B2
3,24.7,B3
4,77.9,B4
5,16.7,B5
6,8,B6
7,33.2,B7

# Molecular target: T3, hFc-tagged human 4-1BB extracellular domain protein (4-1BB-hFc) (human, UniProt Q07011 24-186, limits assumed)
# T3 construct: also called immunogen A; 4-1BB^ECD-hFc; not shown: human IgG Fc fragment (hFc) of the pCpC vector
# Assay: ELISA, coated human 4-1BB-hFc; Ab 2 ug/ml
# Method: (§2) The purified immunogen A (4-1BB-hFc), monkey 4-1BB-his, and mouse 4-1BB-his obtained in Example 1 [for the preparation method, see step 1 of Example 1, preparation of immunogen A], of which the extracellular domain of monkey-derived 4-1BB protein (purchased from ACRO biosystems), the extracellular domain of mouse 4-1BB protein (purchased from sino biological) or other immune detection point proteins respectively were diluted with PBS to a final concentration of 1.0 μg/mL, then added with […] per well to 96-well ELISA plate. It was sealed with plastic film and incubated at 4° C. overnight. The next day, the plate was washed twice with the plate-washing solution [PBS containing 0.01% (v/v) Tween20] and blocking solution [PBS containing 0.01% (v/v) Tween 20 and 1% (v/v) BSA] was added and blocked at room temperature for 2 hours. The blocking solution was discarded and 100 μl of the purified 4-1BB antibody obtained in Example 2 was added per well. After incubated at 37° C. for 2 hours, the plate was washed 3 times with a plate-washing solution [PBS containing 0.01% (v/v) Tween20]. A secondary antibody (purchased from Sigma) labeled with HRP (horseradish peroxidase) was added, and after incubated at 37° C. for 2 hours, the plate was washed 3 times with a plate-washing solution [PBS containing 0.01% (v/v) Tween20]. 100 μl of TMB substrate was added per well. After incubated for 30 minutes at room temperature, 100 μl of stop buffer (1.0N HCl) was added per well. The A450 nm values were read using an ELISA plate reader (SpectraMax 384plus, Molecular Device).
row,OD450 nm [OD450 nm],Binder
1,2.67,B1
2,2.8,B2
3,3.59,B3
4,2.76,B4
5,3.44,B5
6,2.74,B6
7,3.54,B7

# Molecular target: T1, human 4-1BB, full length, on …
# Assay: FACS, CHOK1-h4-1BB cells; Ab 0.0032 ug/ml
# Source text: as §1
row,average fluorescence intensity [MFI],Binder
1,21.1,B1
2,19.4,B2
3,18.3,B3
4,17.8,B4
5,13,B5
6,22.9,B6
7,14.8,B7

# Molecular target: T1, human 4-1BB, full length, on …
# Assay: FACS, CHOK1-h4-1BB cells; Ab 0.00013 ug/ml
# Source text: as §1
row,average fluorescence intensity [MFI],Binder
1,4.1,B1
2,3.9,B2
3,3.5,B3
4,2.6,B4
5,13.8,B5
6,4,B6
7,2.6,B7

# Molecular target: T2, monkey 4-1BB on CHOK1 cells
# Assay: FACS, CHOK1-c4-1BB cells; Ab 0.00013 ug/ml
# Source text: as §1
row,average fluorescence intensity [MFI],Binder
1,2.5,B1
2,2.5,B2
3,3,B3
4,3.2,B4
5,17.6,B5
6,2.4,B6
7,2.7,B7

# Molecular target: T3, hFc-tagged human 4-1BB extracellular …
# Assay: ELISA, coated human 4-1BB-hFc; Ab 0.4 ug/ml
# Method: as §2
row,OD450 nm [OD450 nm],Binder
1,2.69,B1
2,2.79,B2
3,3.58,B3
4,2.77,B4
5,3.44,B5
6,2.75,B6
7,3.56,B7

# Molecular target: T3, hFc-tagged human 4-1BB extracellular …
# Assay: ELISA, coated human 4-1BB-hFc; Ab 0.08 ug/ml
# Method: as §2
row,OD450 nm [OD450 nm],Binder
1,2.47,B1
2,2.64,B2
3,3.27,B3
4,2.62,B4
5,3.18,B5
6,2.59,B6
7,3.29,B7

# Molecular target: T3, hFc-tagged human 4-1BB extracellular …
# Assay: ELISA, coated human 4-1BB-hFc; Ab 0.0006 ug/ml
# Method: as §2
row,OD450 nm [OD450 nm],Binder
1,0.09,B1
2,0.11,B2
3,0.19,B3
4,0.11,B4
5,0.2,B5
6,0.1,B6
7,0.18,B7

# Molecular target: T3, hFc-tagged human 4-1BB extracellular …
# Assay: ELISA, coated human 4-1BB-hFc; Ab 0.0032 ug/ml
# Method: as §2
row,OD450 nm [OD450 nm],Binder
1,0.26,B1
2,0.33,B2
3,0.49,B3
4,0.33,B4
5,0.51,B5
6,0.3,B6
7,0.38,B7

# Molecular target: T3, hFc-tagged human 4-1BB extracellular …
# Assay: ELISA: human 4-1BB-hFc coated at 1.0 µg/mL, antibody titrated, HRP secondary antibody, OD450
# Method: as §2
row,EC50 (read off the curve) [µg/mL],Binder
1,~0.02,B1
2,~0.02,B2
3,~0.02,B3
4,~0.02,B4
5,~0.02,B5
6,~0.02,B6
7,~0.02,B7
